Measured values from the supplement of paper PMC9233669.
This sample holds only a part of the variants without activity.

Tests used:
[1] = system: biotinyl-Ile-oxazolone; experiment: self-aminoacylation, catalytic enhancement (BIO) (fold over background); higher = more active; k-Seq, kA / k0A0; sequences stand for … in GGGAAUGGAUCCACAUCUACGAAUUC…UUCACUGCAGACUUGACGAAGCUG
How it was run: (§1)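 Mutagenized RNA pools (0.43 μM; 21-nt variable region) were treated with 2–1250 μM of each biotinyl-aminoacyl-oxazolone. Conditions were 50 μL HEPES/NaCl/KCl/MgCl2/CaCl2 buffer, 5% acetonitrile, pH 6.9–7.0, room temperature, 90 minutes. Catalytic enhancement, the median kA relative to the uncatalyzed rate, was derived from streptavidin capture, qPCR and Illumina sequencing.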

[2] = system: biotinyl-Met-oxazolone; experiment: self-aminoacylation, catalytic enhancement (BMO) (fold over background); higher = more active; k-Seq, kA / k0A0; sequences stand for … in GGGAAUGGAUCCACAUCUACGAAUUC…UUCACUGCAGACUUGACGAAGCUG
How it was run: as §1

[3] = system: biotinyl-Phe-oxazolone; experiment: self-aminoacylation, catalytic enhancement (BFO) (fold over background); higher = more active; k-Seq, kA / k0A0; sequences stand for … in GGGAAUGGAUCCACAUCUACGAAUUC…UUCACUGCAGACUUGACGAAGCUG
How it was run: as §1

[4] = system: biotinyl-Trp-oxazolone; experiment: self-aminoacylation, catalytic enhancement (BWO) (fold over background); higher = more active; k-Seq, kA / k0A0; sequences stand for … in GGGAAUGGAUCCACAUCUACGAAUUC…UUCACUGCAGACUUGACGAAGCUG
How it was run: as §1

[5] = system: biotinyl-Val-oxazolone; experiment: self-aminoacylation, catalytic enhancement (BVO) (fold over background); higher = more active; k-Seq, kA / k0A0; sequences stand for … in GGGAAUGGAUCCACAUCUACGAAUUC…UUCACUGCAGACUUGACGAAGCUG
How it was run: as §1

[6] = system: biotinyl-Leu-oxazolone; experiment: self-aminoacylation, catalytic enhancement (BLO) (fold over background); higher = more active; k-Seq, kA / k0A0; sequences stand for … in GGGAAUGGAUCCACAUCUACGAAUUC…UUCACUGCAGACUUGACGAAGCUG
How it was run: as §1

Row | Sequence | self-aminoacylation [1] | self-aminoacylation [2] | self-aminoacylation [3] | self-aminoacylation [4] | self-aminoacylation [5] | self-aminoacylation [6]
1 | AUUCACCCAGGUCACCGGGUG [Fam2.2 aminoacylation ribozyme variant] | 3.47 | 5.66 | 39.4 | 4.89 | 3.77 | 5.75
2 | AAGUUUGCUAAUUGUAGCAAG [Fam3.1 aminoacylation ribozyme variant] | 0.854 | 0.979 | 0.987 | 1.02 | 1.03 | 0.95
3 | AACUUUGCUAAUAGUCGCAUG [Fam3.1 aminoacylation ribozyme variant] | 2.77 | 2.35 | 2.98 | 2.85 | 1.89 | 2.79
4 | AUUACCCAGGUCAUCGAGUGC [Fam2.1 aminoacylation ribozyme variant] | 0.777 | 0.643 | 0.417 | 0.852 | 0.958 | 0.919
5 | CUACUCUUCAAGCAAUCGGUC [Fam1B.1 aminoacylation ribozyme variant] | 0.859 | 0.904 | 25.4 | 11 | 0.924 | 1.07
6 | ACGUUUGCUAAGAGUCGCAAG [Fam3.1 aminoacylation ribozyme variant] | 1.35 | 1.12 | 2.95 | 1.44 | 1.44 | 1.65
7 | AAGUUUGCUAAUAGACGCAAG [Fam3.1 aminoacylation ribozyme variant] | 0.526 | 0.477 | 0.87 | 0.574 | 0.587 | 0.459
8 | CCACACCUCCAGCAAUCGGUC [Fam1B.1 aminoacylation ribozyme variant] | 1.69 | 1.27 | 1.64 | 1.19 | 1.4 | 1.15
9 | AAGUCUGCUAAUAGUCGCUAG [Fam3.1 aminoacylation ribozyme variant] | 0.989 | 0.995 | 3.35 | 1.81 | 0.983 | 1.29
10 | CCACUUCAAACAAUCGGUCAG [Fam1A.1 aminoacylation ribozyme variant] | 1.01 | 0.992 | 13.7 | 9.79 | 1.04 | 1.03
11 | CUACAUCAAACAAUCUGUCUG [Fam1A.1 aminoacylation ribozyme variant] | 0.722 | 0.533 | 0.795 | 0.497 | 0.736 | 0.624
12 | AUUCACCUAGGGCAUCGGGUU [Fam2.2 aminoacylation ribozyme variant] | 1.91 | 2.08 | 5.04 | 2.78 | 2.01 | 2.37
13 | CCACCCUUCAAGCAAUCGGAC [Fam1B.1 aminoacylation ribozyme variant] | 1.04 | 0.991 | 0.866 | 0.664 | 1.31 | 0.712
14 | AUACUUCAAACAGUCGGUCUG [Fam1A.1 aminoacylation ribozyme variant] | 0.876 | 0.965 | 0.584 | 0.831 | 0.699 | 0.996
15 | AUUACCCUAGUAAUCGAGUGA [Fam2.1 aminoacylation ribozyme variant] | 3.08 | 6.75 | 46.5 | 9.47 | 3.18 | 7.45
16 | CUACUUGAAACAAUGGGUCUG [Fam1A.1 aminoacylation ribozyme variant] | 1.3 | 1.65 | 0.694 | 1.61 | 1.13 | 1.13
17 | AUUACACUGGUAAUCGAGUGA [Fam2.1 aminoacylation ribozyme variant] | 4.09 | 7.53 | 30.4 | 8.34 | 3.38 | 8.16
18 | CCACACAUCAAGCAAUCGGUG [Fam1B.1 aminoacylation ribozyme variant] | 3.27 | 4.98 | 31.6 | 5.14 | 3.26 | 6.65
19 | ACACUUCAAACAAUCGGUCUG [Fam1A.1 aminoacylation ribozyme variant] | 1.7 | 1.57 | 75.9 | 33.3 | 1.43 | 2.16
20 | CUACUUCAUACAAUCGGUCUU [Fam1A.1 aminoacylation ribozyme variant] | 1.01 | 0.724 | 0.932 | 0.491 | 0.972 | 0.844
21 | CUUCUUCAAACAAUCCGUCUG [Fam1A.1 aminoacylation ribozyme variant] | 0.85 | 0.623 | 1.17 | 0.964 | 0.901 | 0.923
22 | GAGUUUGCUAAUAGUCACAAG [Fam3.1 aminoacylation ribozyme variant] | 1.84 | 1.62 | 11.7 | 4.25 | 1.48 | 1.36
23 | AAGUCUUCUAAUAGUCGCAAG [Fam3.1 aminoacylation ribozyme variant] | 2.06 | 1.56 | 3.19 | 2.07 | 1.52 | 1.83
24 | ACGUUUGUUAAUAGUCGCAAG [Fam3.1 aminoacylation ribozyme variant] | 1.85 | 2.07 | 3.28 | 1.71 | 1.69 | 2.19
25 | CUAUUUCAAACAAUCGGUCUU [Fam1A.1 aminoacylation ribozyme variant] | 0.864 | 0.878 | 2.72 | 1.57 | 0.827 | 0.792
26 | AUUUCCCUGGACAUCGAGUGA [Fam2.1 aminoacylation ribozyme variant] | 2.83 | 6.51 | 41.7 | 8.11 | 3.54 | 5.46

Row | Sequence | self-aminoacylation [1] | self-aminoacylation [2] | self-aminoacylation [3] | self-aminoacylation [4] | self-aminoacylation [5] | self-aminoacylation [6]
27 | AUUACCGUGGUCAUCGAGUGG [Fam2.1 aminoacylation ribozyme variant] | 1.27 | 1.85 | 7.04 | 1.72 | 1.33 | 1.81
28 | CGACUACAAACAAUCGGUCUG [Fam1A.1 aminoacylation ribozyme variant] | 1.09 | 1.22 | 2.44 | 1.31 | 1.15 | 0.926
29 | CCACACUUCAUCCAAUCGGUC [Fam1B.1 aminoacylation ribozyme variant] | 0.883 | 0.811 | 0.689 | 0.581 | 0.912 | 0.854
30 | AUUAACCUGGUGAUCGAGUGA [Fam2.1 aminoacylation ribozyme variant] | 3.62 | 6.03 | 25.7 | 8.53 | 3.16 | 6.66
31 | AUUCCCCUGGGUCAUCGGGUG [Fam2.2 aminoacylation ribozyme variant] | 8.62 | 12.2 | 107 | 13.3 | 9.66 | 16.9
32 | AUUACCCAGGUCGUCGAGUGA [Fam2.1 aminoacylation ribozyme variant] | 0.849 | 0.786 | 0.686 | 0.416 | 0.951 | 0.669
33 | UAGCUUGCUAAUAGUCGCAAG [Fam3.1 aminoacylation ribozyme variant] | 2.34 | 1.88 | 3.65 | 1.84 | 2.22 | 1.8
34 | AUUCUCCUAGGUCAUCGGGUU [Fam2.2 aminoacylation ribozyme variant] | 3.08 | 3.79 | 14.8 | 3.6 | 3.07 | 4.14
35 | AAGUUUGCUAACAGUCGCGAG [Fam3.1 aminoacylation ribozyme variant] | 1.02 | 0.591 | 1.64 | 2.46 | 1.12 | 1.24
36 | CCACACUUCCAGCAAUCGUUC [Fam1B.1 aminoacylation ribozyme variant] | 1.09 | 0.642 | 1.22 | 0.75 | 1.05 | 0.64
37 | CCACACUUCACGCCAUCGGUC [Fam1B.1 aminoacylation ribozyme variant] | 1.59 | 1.31 | 1.28 | 2.05 | 2.13 | 1.51
38 | AUACACCUAGCUCAUCGGGUG [Fam2.2 aminoacylation ribozyme variant] | 1.9 | 2.23 | 4.61 | 1.24 | 2.21 | 1.91
39 | CUACUUCAAAGCAUCGGUCUG [Fam1A.1 aminoacylation ribozyme variant] | 0.857 | 0.802 | 0.786 | 0.794 | 0.939 | 0.898
40 | CCACACUUCAAGCAUUAGGUC [Fam1B.1 aminoacylation ribozyme variant] | 0.501 | 0.399 | 0.818 | 0.516 | 0.645 | 0.504
41 | AAGUUAGCUAAUAGUCGCAGG [Fam3.1 aminoacylation ribozyme variant] | 1.76 | 1.6 | 4.27 | 1.77 | 1.8 | 1.62
42 | AUUACCGUCGUCAUCGAGUGA [Fam2.1 aminoacylation ribozyme variant] | 2.36 | 3.23 | 8.91 | 3.88 | 2.3 | 3.42
43 | CUGCUUUAAACAAUCGGUCUG [Fam1A.1 aminoacylation ribozyme variant] | 0.889 | 0.879 | 2 | 1.87 | 0.79 | 0.754
44 | CUACUUCAAACAAUCGUUCUU [Fam1A.1 aminoacylation ribozyme variant] | 0.712 | 0.716 | 0.947 | 0.574 | 0.729 | 0.64
45 | CAACUUCAAACAGUCGGUCUG [Fam1A.1 aminoacylation ribozyme variant] | 1.21 | 1.2 | 5.76 | 0.928 | 1.19 | 1.08
46 | CCACACUUCUAGCAAUAGGUC [Fam1B.1 aminoacylation ribozyme variant] | 0.629 | 0.554 | 0.978 | 0.429 | 0.666 | 0.53
47 | AUCCACCUAGGUCAUCGGGCG [Fam2.2 aminoacylation ribozyme variant] | 4.91 | 5.3 | 20.9 | 3.38 | 3.87 | 5.85
48 | CCACCCUUCAGGCAAUCGGUC [Fam1B.1 aminoacylation ribozyme variant] | 1.71 | 1.57 | 1.82 | 1.71 | 2.12 | 1.55
49 | AUUCACCAAGGACAUCGGGUG [Fam2.2 aminoacylation ribozyme variant] | 3.2 | 4.65 | 30 | 4.17 | 3.27 | 4.96
50 | CUACUUCAUAGAAUCGGUCUG [Fam1A.1 aminoacylation ribozyme variant] | 0.783 | 0.75 | 0.644 | 0.698 | 0.749 | 0.837
51 | AAGUUCGCUAAUGGUCGCAAG [Fam3.1 aminoacylation ribozyme variant] | 1.55 | 1.33 | 4.06 | 1.62 | 1.5 | 1.8
